The text below walks through data of US6362319B1, “Glial cell line-derived neurotrophic factor” (Amgen Inc., priority 1991, dated 2002).

The subject of series [1] is nigral dopaminergic nerve cells. Kind of series: Experimental Parkinsonism in monkeys treated with MPTP. Format: in vivo, monkeys (Cebus apella). As to conditions: intraventricular minipump, 14 days, MPTP 0.6 mg/kg. The procedure:
A stainless-steel cannula may be implanted into the right lateral ventricle and connected to a subcutaneously-implanted osmotic minipump (Alzet 2002). The minipump contains GDNF at various concentrations or its diluent as a negative control. The pump delivers 0.5 μl/h for 14 days. Two days after the cannula-pump implant, monkeys (Cebus apella) receive an injection of 0.6 mg/kg of MPTP into the right carotid artery. Six weeks after the initial implant, animals are perfused with saline and the brain rapidly removed. The brain is dissected on ice and punches of tissue are removed from the caudate nucleus and putamen. The substantia nigra is placed in fixative. The caudate-putamen tissue is analyzed by HPLC-EC for dopamine, the substantia nigra is processed for tyrosine hydroxylase (TH) immunoreactivity.
Degeneration of nigral dopaminergic nerve cells and their axonal projections to the caudate/putamen cause experimental Parkinsonism in this monkey model. There are several experimental indications that GDNF may prevent or reduce the severity of this neuronal degeneration. […] This indicates sparing by GDNF of nigral dopaminergic nerve cells from the toxic effects of MPTP. […] This indicates sparing by GDNF of the axonal projections of the nigral dopaminergic neurons from the toxic effects of MPTP. […]

In series [2] the test system is dopaminergic neurons in rat embryo (E16) mesencephalic cell cultures. The series can be described thus: Bioassay for dopaminergic neurotrophic activity: 3H-dopamine uptake in dissociated mesencephalic cell cultures. Format: cell-based. Conditions: for FOLD (specific activity relative to B49 conditioned medium): purification fold over CM. The procedure: The dopaminergic activity of the GDNF is used to facilitate the purification process. […] Briefly, cultures of dissociated mesencephalic cells are prepared, either in serum rich or serum free environments. Samples to be tested for dopaminergic activity are desalted and serially added to the cell cultures and the dishes are incubated for 6 days at 37° C. in a humidified atmosphere containing 6.5% CO2. The cultures, in the presence of the testing material, are then incubated at 37° C. with tritiated dopamine (^3H-DA). The dopamine uptake is halted, the cells washed, and the dopamine uptake analyzed by scintillation counting of retained tritium in the cultures.
Culture conditions: Dissociated mesencephalic cell cultures were prepared as previously described (Friedman and Mytilineou 1987 Neurosci. Lett. 79:65-72), with minor modifications. Briefly, rostral mesencephalic tegmentum from brains of Sprague-Dawley rat embryos, at the 16th day of gestation, were dissected under the microscope in sterile conditions, collected in Ca^2+- and Mg^2+-free Dulbecco's phosphate buffered saline (Gibco, Gaithersburg, Md.) and dissociated mechanically by mild trituration. The cells were plated in 100 μl per well onto 16-mm diameter tissue culture wells (Falcon, Lincoln Park, N.J., 24-well plate) containing 400 μl medium to give a density of 2.5-3.5×10^5 cells per well. The culture wells had been previously exposed to 0.1 mg/ml solution of poly L-ornithine in 10 mM sodium borate, pH 8.4, for 3 hours at 37° C., washed 3 times in milli-Q H2O and once in Earle's balanced salt solution (Gibco). The feeding medium (10/10) consisted of minimal essential medium (MEM, Gibco) supplemented with glucose (33 mM), sodium bicarbonate (24.5 mM), glutamine (2 mM), HEPES (15 mM), penicillin G (5 U/ml), streptomycin (5 μg/ml), 10% heat-inactivated fetal calf serum (Gibco) and 10% heat inactivated horse serum (Gibco). The cultures were kept at 37° C. in a water-saturated atmosphere containing 6.5% CO2. After 3 hours, when most of the cells had adhered to the bottom of the well, the medium was replaced with 500 μl of fresh medium. At this time, a serial dilution of the sample to be assayed for GDNF activity was added to each well in duplicate and the plates were incubated in the 37° C. incubator. After a week, the cultures were treated for 24 hours with fluorodeoxyuridine (13 μg/ml) and uridine (33 μg/ml) to prevent excessive glial proliferation and subsequently fed with the above medium without fetal calf serum. The feeding medium was changed weekly.
Alternatively, chemically defined serum-free medium was used in which serum was replaced by a mixture of proteins; hormones and salts. The defined medium (DM) consisted of a mixture of MEM and F12 nutrient mixture (both Gibco, 1:1; vol/vol) with glucose (33 mM), glutamine (2 mM) NaHCO3 (24.5 mM), HEPES (15 mM), supplemented with transferrin (100 μg/ml), insulin (25 μg/ml), putrescine (60 μM), progesterone (20 nM), sodium selenite (30 nM), penicillin G (5 U/ml) and streptomycin (5 μg/ml). The osmolarity of the DM was adjusted to 325 by the addition of milli-Q H2O. (110-125 ml H2O/l). […] All assays reached in the following examples were done in serum-containing medium.
The functional status of the dopaminergic neurons may be assayed in these cultures by measuring dopamine uptake through specific “scavenger” transporters in the dopaminergic neurons and by counting the number of neurons positive for the dopamine synthetic enzyme tyrosine hydroxylase using immunohistochemistry.

B1: glial cell line-derived neurotrophic factor (protein)
chain: SNMPEDYPDQFDDVMDFIQATIKRLKRSPDKQMAVLPRRERNRQAAAANPENSRGKGRRGQRGKNRGCVLTAIHLNVTDLGLGYETKEELIFRYCSGSCDAAETTYDKILKNLSRNRRLVTDKVGQACCRPIAF
notes: dopaminergic neurotrophic protein purified from serum-free conditioned medium of rat B49 glioblastoma cells; disulfide-bonded dimer
As for B1, the “loss of dopamine content in the caudate/putamen” value in series [1] was “may also prevent the loss of dopamine content in the caudate/putamen”. Moreover, in series [2], the “bioactivity in dopamine uptake assay” value was “active in stimulating dopamine uptake in both serum-containing and defined media”; the “FOLD (specific activity relative to B49 conditioned medium)” value was “about 24,000”. The “SP. ACT (specific activity, dopamine uptake trophic units per protein)” value in series [2] (TU = reciprocal of dilution giving 50% of maximal stimulation of 3H-DA uptake) is reported as “at least 12,000 TU/μg”. Moreover, the “concentration for half-maximal stimulation of dopamine uptake” value in series [2] (indicated by the specific activity) is recorded as “approximately 60 pg/ml”. The “FOLD (specific activity relative to B49 conditioned medium)” value in series [2] (listed as substantially purified GDNF) is “at least 24,000”. Further, in series [2] (purified GDNF after final RP-HPLC), the estimated specific activity result was “about 17 trophic units/ng”. The “ED50 for increasing dopamine uptake” value in series [2] (rat embryo (E16) mesencephalic culture) is reported as “about 50 pg/ml”.
